The record followed here is patent US20150203577A1 (Chugai, published 2015).

Positions count from the first letter of the chain named.

T1: mouse FcγRII extracellular domain, C-terminal His tag (mouse, UniProt P08101 30-210)
T1 construct: Whole entry named; also called mFcγRII; mFcgRII
T1 sequence: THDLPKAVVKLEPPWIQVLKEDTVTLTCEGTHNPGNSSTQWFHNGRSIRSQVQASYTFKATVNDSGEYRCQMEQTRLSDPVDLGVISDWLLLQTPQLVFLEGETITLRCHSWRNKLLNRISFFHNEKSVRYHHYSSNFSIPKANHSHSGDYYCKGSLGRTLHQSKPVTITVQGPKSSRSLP

T2: mouse FcγRIII extracellular domain, C-terminal His tag (mouse, UniProt P08508 31-215)
T2 construct: Whole entry named; also called mFcγRIII; mFcgRIII
T2 chain: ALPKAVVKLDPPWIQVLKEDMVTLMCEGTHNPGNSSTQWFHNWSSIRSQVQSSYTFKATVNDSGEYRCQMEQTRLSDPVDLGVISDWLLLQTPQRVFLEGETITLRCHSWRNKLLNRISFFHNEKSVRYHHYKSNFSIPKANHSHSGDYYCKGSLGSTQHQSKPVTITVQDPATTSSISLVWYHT

B1: H237-MB723/MRAL-k0 (antibody, mouse IgG1, kappa)
heavy: QVQLQESGPGLVKPSETLSLTCAVSGHSISHDHAWSWVRQPPGEGLEWIGFISYSGITNYNPSLQGRVTISRDNSKNTLYLQMNSLRAEDTAVYYCARSLARTTAMDYWGEGTLVTVSSAKTTPPSVYPLAPGSAAQTNSMVTLGCLVKGYFPEPVTVTWNSGSLSSGVHTFPAVLQSDLYTLSSSVTVPSSTWPSETVTCNVAHPASSTKVDKKIVPRDCGCKPCICEDYEEEDVFIFPPKPKDVLTITLTPKVTCVVVDISKDDPEVQFSWFVDDVEVHTAQTQPREEQFNSTFRSVSELPIMHQDWLNGKEFKCRVNSAAFPAPIEKTISKTKGRPKAPQVYTIPPPKEQMAKDKVSLTCMITDFFPEDITVEWQWNGQPAENYKNTQPIMDTDGSYFVYSKLNVQKSNWEAGNTFTCSVLHEGLHNHHTEKSLSHSPGK
light: not shown
notes: copies: 2 + 2
B2: H237-MB726/MRAL-k0 (antibody, mouse IgG1, kappa)
heavy: B1 heavy with D230V
light: not shown
notes: copies: 2 + 2
B3: H237-MB730/MRAL-k0 (antibody, mouse IgG1, kappa)
heavy: B1 heavy with E229Q, D230P, Y231N
light: not shown
notes: copies: 2 + 2
B4: H237-MB725/MRAL-k0 (antibody, mouse IgG1, kappa)
heavy: B1 heavy with D230T
light: not shown
notes: copies: 2 + 2
B5: H237-MB722/MRAL-k0 (antibody, mouse IgG1, kappa)
heavy: B1 heavy with D230A
light: not shown
notes: copies: 2 + 2
B6: H237-MB731/MRAL-k0 (antibody, mouse IgG1, kappa)
heavy: B1 heavy with D230P, Y231A, D235L
light: not shown
notes: copies: 2 + 2
B7: H237-MB727/MRAL-k0 (antibody, mouse IgG1, kappa)
heavy: B1 heavy with D230P, Y231A
light: not shown
notes: copies: 2 + 2
B8: H237-MB732/MRAL-k0 (antibody, mouse IgG1, kappa)
heavy: B1 heavy with D230P, Y231N, D235L
light: not shown
notes: copies: 2 + 2
B9: H237-MB729/MRAL-k0 (antibody, mouse IgG1, kappa)
heavy: B1 heavy with D230P, Y231N
light: not shown
notes: copies: 2 + 2
B10: H237-MB724/MRAL-k0 (antibody, mouse IgG1, kappa)
heavy: B1 heavy with D230N
light: not shown
notes: copies: 2 + 2
B11: H237-MB866/MRAL-k0 (antibody, mouse IgG1, kappa)
heavy: B1 heavy with D230P, Y231N, E233V, D235I, A322D, A323G
light: not shown
notes: copies: 2 + 2
B12: H237-MB867/MRAL-k0 (antibody, mouse IgG1, kappa)
heavy: B1 heavy with D230P, Y231N, E233V, D235I, K264D, A322D, A323G
light: not shown
notes: copies: 2 + 2
B13: H237-MB868/MRAL-k0 (antibody, mouse IgG1, kappa)
heavy: B1 heavy with D230P, Y231N, E233V, D235I, K264D, N320D, A322D, A323G
light: not shown
notes: copies: 2 + 2
B14: H237-MB093/MRAL-k0 (antibody, mouse IgG1, kappa)
heavy: B1 heavy with E229T, D230V, Y231P, E233V, D235S
light: not shown
notes: copies: 2 + 2
B15: H237-MB092/MRAL-k0 (antibody, mouse IgG1, kappa)
heavy: B1 heavy with E229T, D230V, Y231P, E233V, E234D, D235S
light: not shown
notes: copies: 2 + 2
B16: H237-MB147/MRAL-k0 (antibody, mouse IgG1, kappa)
heavy: B1 heavy with E229T, D230V, Y231P, E233V, E234S, D235S, F237E
light: not shown
notes: copies: 2 + 2
B17: H237-MB159/MRAL-k0 (antibody, mouse IgG1, kappa)
heavy: B1 heavy with E229T, D230V, Y231P, E233V, E234S, D235S, F237T
light: not shown
notes: copies: 2 + 2
B18: H237-MB125/MRAL-k0 (antibody, mouse IgG1, kappa)
heavy: B1 heavy with E229T, D230V, Y231P, E233V, E234S, D235W
light: not shown
notes: copies: 2 + 2
B19: H237-MB146/MRAL-k0 (antibody, mouse IgG1, kappa)
heavy: B1 heavy with E229T, D230V, Y231P, E233V, E234S, D235S, F237D
light: not shown
notes: copies: 2 + 2
B20: H237-MB112/MRAL-k0 (antibody, mouse IgG1, kappa)
heavy: B1 heavy with E229T, D230V, Y231P, E233V, E234S, D235F
light: not shown
notes: copies: 2 + 2
B21: H237-MB258/MRAL-k0 (antibody, mouse IgG1, kappa)
heavy: B1 heavy with E229T, D230V, Y231P, E233V, E234S, D235S, S294H
light: not shown
notes: copies: 2 + 2
B22: H237-MB208/MRAL-k0 (antibody, mouse IgG1, kappa)
heavy: B1 heavy with E229T, D230V, Y231P, E233V, E234S, D235S, S263M
light: not shown
notes: copies: 2 + 2
B23: H237-MB075/MRAL-k0 (antibody, mouse IgG1, kappa)
heavy: B1 heavy with E229T, D230V, Y231P, E234S, D235S
light: not shown
notes: copies: 2 + 2

One experiment addresses T1, mouse FcγRII extracellular domain, …. The experiment is described as follows: SPR (Biacore T200); KD of H237-mIgG1/MRAL-k0 / KD of variant. An excerpt:
(§1) The antibody H chain variable region used was the variable region H237 (SEQ ID NO: 1) of the H chain VH3-IgG1 of the anti-IL-6 receptor antibody Fv4-IgG1 described in WO2009/125825. The antibody L chain commonly used was the L chain MRAL-k0 (SEQ ID NO: 2) of the anti-IL-6 receptor antibody tocilizumab. The aforementioned 11 variants were used as templates to introduce the alteration. These variants were expressed and purified by the method of Reference Example 1 and evaluated for their binding to mFcγRII and mFcγRIII by the method of Reference Example 2 using Biacore T200.
(§2) Each altered antibody was analyzed for its interaction with each Fcγ receptor prepared above using Biacore T100 (GE Healthcare Japan Corp.), Biacore T200 (GE Healthcare Japan Corp.), Biacore A100, or Biacore 4000. The running buffer used was HBS-EP+ (GE Healthcare Japan Corp.). The assay temperature was set to 25° C. The sensor chips used were chips prepared by immobilizing Protein L (ACTIGEN or BioVision) onto Series S Sensor Chip CM5 (GE Healthcare Japan Corp.) or Series S Sensor Chip CM4 (GE Healthcare Japan Corp.) by the amine coupling method.
(§3) In order to calculate the KD value of each altered antibody for FcγR, kinetic analysis was conducted according to the following method: first, the antibody of interest was captured onto any of these chips and allowed to interact with mFcγR diluted with a running buffer. For the obtained sensorgram, the assay results were globally fit into the 1:1 Langmuir binding model using Biacore Evaluation Software to calculate an association rate constant ka (L/mol/s) and a dissociation rate constant kd (1/s). From these values, the dissociation constant KD (mol/L) was calculated.
On the technique in general: Surface plasmon resonance follows binding to a sensor surface in real time, without labels.
Turning to B1, the “relative mFcγRII-binding activity (mIgG1 = 1)” value is 14.1 fold.
On the same count and under the same terms, the result for B2 reads 35.7 fold.
Regarding B3, the “relative mFcγRII-binding activity (mIgG1 = 1)” value came to 7.24 fold.
Consider B4, for which the “relative mFcγRII-binding activity (mIgG1 = 1)” value worked out at 24.3 fold.
Take B5: the “relative mFcγRII-binding activity (mIgG1 = 1)” value stood at 33.3 fold.
With B6, the “relative mFcγRII-binding activity (mIgG1 = 1)” value is 7.13 fold.
Still for that read-out and setting: the result for B7 reads 11.7 fold; that for B8, 0.84 fold; that for B9, 10.4 fold.
For B10, the “relative mFcγRII-binding activity (mIgG1 = 1)” value amounted to 20.8 fold.

The next experiment has as its target T2, mouse FcγRIII extracellular domain, …. The description is as above.
Description: as §1, §2, §3
Consider B1, for which the “relative mFcγRIII-binding activity (mIgG1 = 1)” value came out at 0.72 fold.
Take B2: the “relative mFcγRIII-binding activity (mIgG1 = 1)” value turned out to be 2.08 fold.
The same measure, in the same setting: the result for B3 reads 0.43 fold; that for B4, 1.39 fold.
For the molecule B5, the “relative mFcγRIII-binding activity (mIgG1 = 1)” value was found to be 1.35 fold.
Turning to B6, the “relative mFcγRIII-binding activity (mIgG1 = 1)” value is 0.03 fold.
On the same count and under the same terms, the result for B7 reads 0.66 fold.
Turning to B8, the “relative mFcγRIII-binding activity (mIgG1 = 1)” value stood at 0.03 fold.
As for B9, the “relative mFcγRIII-binding activity (mIgG1 = 1)” value is 0.53 fold.
Turning to B10, the “relative mFcγRIII-binding activity (mIgG1 = 1)” value is 1.19 fold.

Another experiment deals with T1, mouse FcγRII extracellular domain, …. The experiment is described as above. The source holds these as a separate data set.
Description: (§4) The antibody H chain variable region used was the variable region H237 (SEQ ID NO: 1) of the H chain VH3-IgG1 of the anti-IL-6 receptor antibody Fv4-IgG1 described in WO2009/125825. The antibody L chain commonly used was the L chain MRAL-k0 (SEQ ID NO: 2) of the anti-IL-6 receptor antibody tocilizumab. H237-MB716/MRAL-k0 was used as a template to introduce the alterations. These variants were expressed and purified by the method of Reference Example 1 and evaluated for their binding to mFcγRII and mFcγRIII by the method of Reference Example 2 using Biacore T200.
as §2
With B11, the “relative mFcγRII-binding activity (mIgG1 = 1)” value is 13 fold.
Still for that read-out and setting: the same measure for B12: 35.2 fold; for B13: 36.6 fold.

In another experiment the target is T2, mouse FcγRIII extracellular domain, …. Described as above. The source holds these as a separate data set.
Description: as §4, §2
In the case of B11, the “relative mFcγRIII-binding activity (mIgG1 = 1)” value turned out to be 0.18 fold.
On the same count and under the same terms, the result for B12 reads 0.85 fold; that for B13, 0.86 fold.

The target of the next experiment is T1, mouse FcγRII extracellular domain, …. Briefly: SPR (Biacore T200); KD of H237-MB716/MRAL-k0 / KD of variant.
Description: as §4, §2
Take B11: the “relative mFcγRII-binding activity (MB716 = 1)” value was found to be 3 fold.
Take B12: the “relative mFcγRII-binding activity (MB716 = 1)” value came out at 8.1 fold.
The same measure, in the same setting: the result for B13 reads 8.4 fold.

Another experiment addresses T2, mouse FcγRIII extracellular domain, …. Described as above.
Description: as §4, §2
Regarding B11, the “relative mFcγRIII-binding activity (MB716 = 1)” value stood at 3.02 fold.
As for B12, the “relative mFcγRIII-binding activity (MB716 = 1)” value was determined as 14.3 fold.
The same measure, in the same setting: the result for B13 reads 14.4 fold.

A further experiment has as its target T1, mouse FcγRII extracellular domain, …. Briefly: SPR (Biacore T200); KD of H237-mIgG1/MRAL-k0 / KD of variant. This is another data set of the same source.
On to B14, for which the “relative mFcγRII-binding activity (mIgG1 = 1)” value is 2.48 fold.
As for B15, the “relative mFcγRII-binding activity (mIgG1 = 1)” value is 0.16 fold.
For B16, the “relative mFcγRII-binding activity (mIgG1 = 1)” value came out at 0.95 fold.
Turning to B17, the “relative mFcγRII-binding activity (mIgG1 = 1)” value came out at 0.37 fold.
With B18, the “relative mFcγRII-binding activity (mIgG1 = 1)” value turned out to be 0.81 fold.
Consider B19, for which the “relative mFcγRII-binding activity (mIgG1 = 1)” value came out at 0.85 fold.
Regarding B20, the “relative mFcγRII-binding activity (mIgG1 = 1)” value turned out to be 0.47 fold.
For B21, the “relative mFcγRII-binding activity (mIgG1 = 1)” value turned out to be 0.37 fold.
Consider B22, for which the “relative mFcγRII-binding activity (mIgG1 = 1)” value turned out to be 0.4 fold.
In the case of B23, the “relative mFcγRII-binding activity (mIgG1 = 1)” value turned out to be 0.12 fold.

The next experiment concerns the target T2, mouse FcγRIII extracellular domain, …. The experiment is described as above. The source holds these as a separate data set.
For the molecule B14, the “relative mFcγRIII-binding activity (mIgG1 = 1)” value came out at 0.61 fold.
Same read-out and setting: the same measure for B15: 0.05 fold; for B16: 0.36 fold.
As to B17, the “relative mFcγRIII-binding activity (mIgG1 = 1)” value was 0.28 fold.
Same read-out and setting: the same measure for B18: 0.48 fold.
Same read-out and setting: the same measure for B19: 0.21 fold; for B20: 0.27 fold.
For the molecule B21, the “relative mFcγRIII-binding activity (mIgG1 = 1)” value was determined as 0.32 fold.
On the same count and under the same terms, the result for B22 reads 0.26 fold.
With B23, the “relative mFcγRIII-binding activity (mIgG1 = 1)” value was found to be 0.07 fold.
